This is an account of results in PMC3177148 (Molecular microbiology, 2011).

One series deals with MacB (Escherichia coli, UniProt P75831). The series can be described thus: limited proteolysis protection. The format is binding. As to conditions: 1 mM Mg-AMPPNP, loaded on ice, proteolysis at 37°C.
For series [1], the target named is T1, MacB with C-terminal 6His tag, purified and reconstituted into proteoliposomes (E. coli, UniProt P75831 1-648).
T1 sequence: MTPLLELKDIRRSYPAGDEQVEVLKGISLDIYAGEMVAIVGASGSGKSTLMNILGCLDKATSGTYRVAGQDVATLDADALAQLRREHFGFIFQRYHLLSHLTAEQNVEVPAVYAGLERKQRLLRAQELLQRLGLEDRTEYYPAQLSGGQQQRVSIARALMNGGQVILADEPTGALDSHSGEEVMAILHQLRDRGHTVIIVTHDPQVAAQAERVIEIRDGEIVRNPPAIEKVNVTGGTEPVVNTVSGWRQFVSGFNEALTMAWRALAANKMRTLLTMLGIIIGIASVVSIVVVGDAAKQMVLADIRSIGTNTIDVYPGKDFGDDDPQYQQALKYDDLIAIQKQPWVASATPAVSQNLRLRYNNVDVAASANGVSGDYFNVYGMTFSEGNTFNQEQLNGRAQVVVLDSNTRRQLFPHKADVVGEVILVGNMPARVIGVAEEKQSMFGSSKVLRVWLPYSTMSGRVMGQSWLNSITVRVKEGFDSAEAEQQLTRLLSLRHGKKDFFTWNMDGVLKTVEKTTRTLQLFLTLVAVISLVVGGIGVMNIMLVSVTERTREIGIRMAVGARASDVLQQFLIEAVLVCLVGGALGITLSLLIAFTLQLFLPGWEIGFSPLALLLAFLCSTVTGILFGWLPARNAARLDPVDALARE
Description: limited proteolysis of proteoliposomes.

The series “cross-linking” deals with the molecule itself. The series can be described thus: cross-linking.

Turning to `Nc1ncnc2c1ncn2[C@@H]1O[C@H](COP(=O)(O)OP(=O)(O)NP(=O)(O)O)[C@@H](O)[C@H]1O` [AMPPNP], the “limited proteolysis protection (proteinase K) in proteoliposomes, anti-MacB immu” value on MacB was “MacB alone binds ATP and AMPPNP”.

B1: MacA wild type with C-terminal 6His tag, purified (natural protein)
chain: MKKRKTVKKRYVIALVIVIAGLITLWRILNAPVPTYQTLIVRPGDLQQSVLATGKLDALRKVDVGAQVSGQLKTLSVAIGDKVKKDQLLGVIDPEQAENQIKEVEATLMELRAQRQQAEAELKLARVTYSRQQRLAQTKAVSQQDLDTAATEMAVKQAQIGTIDAQIKRNQASLDTAKTNLDYTRIVAPMAGEVTQITTLQGQTVIAAQQAPNILTLADMSAMLVKAQVSEADVIHLKPGQKAWFTVLGDPLTRYEGQIKDVLPTPEKVNDAIFYYARFEVPNPNGLLRLDMTAQVHIQLTDVKNVLTIPLSALGDPVGDNRYKVKLLRNGETREREVTIGARNDTDVEIVKGLEAGDEVVIGEAKPGAAQ
As for B1, the binding result (in series [1]; in the series “cross-linking”) was “binds” throughout.

B2: MacA G357A with C-terminal 6His tag, purified (natural protein)
chain: MKKRKTVKKRYVIALVIVIAGLITLWRILNAPVPTYQTLIVRPGDLQQSVLATGKLDALRKVDVGAQVSGQLKTLSVAIGDKVKKDQLLGVIDPEQAENQIKEVEATLMELRAQRQQAEAELKLARVTYSRQQRLAQTKAVSQQDLDTAATEMAVKQAQIGTIDAQIKRNQASLDTAKTNLDYTRIVAPMAGEVTQITTLQGQTVIAAQQAPNILTLADMSAMLVKAQVSEADVIHLKPGQKAWFTVLGDPLTRYEGQIKDVLPTPEKVNDAIFYYARFEVPNPNGLLRLDMTAQVHIQLTDVKNVLTIPLSALGDPVGDNRYKVKLLRNGETREREVTIGARNDTDVEIVKGLEAADEVVIGEAKPGAAQ
On to B2, for which, in “cross-linking”, the binding result was “binds”.

B3: MacA G353A with C-terminal 6His tag, purified (natural protein)
chain: MKKRKTVKKRYVIALVIVIAGLITLWRILNAPVPTYQTLIVRPGDLQQSVLATGKLDALRKVDVGAQVSGQLKTLSVAIGDKVKKDQLLGVIDPEQAENQIKEVEATLMELRAQRQQAEAELKLARVTYSRQQRLAQTKAVSQQDLDTAATEMAVKQAQIGTIDAQIKRNQASLDTAKTNLDYTRIVAPMAGEVTQITTLQGQTVIAAQQAPNILTLADMSAMLVKAQVSEADVIHLKPGQKAWFTVLGDPLTRYEGQIKDVLPTPEKVNDAIFYYARFEVPNPNGLLRLDMTAQVHIQLTDVKNVLTIPLSALGDPVGDNRYKVKLLRNGETREREVTIGARNDTDVEIVKALEAGDEVVIGEAKPGAAQ
Consider B3, for which the binding result in the series “cross-linking” is recorded as “binds”.
